Laboratory results published in publication PMC11109196 (Nature Communications, 2024).

Key:
[1] = biological target: T1, MW959 gp120 (HIV-1 subtype C, 93MW959 (isolate 959 …, strain)); experiment: flow cytometry on cells; blocking format: HmAb64 added to biotinylated gp120 in the staining of primary human CD4+ T cells; loss of gp120 staining read out (2, 4, 8 ug HmAb64 with 2 ug ADA gp120 in panel b); conditions: both partners purified
T1 construct: also called MW959 (C)

[2] = biological target: T2, CM244 gp120 (HIV-1 isolate CM244 (CRF01_AE; printed …, UniProt Q4QX31, strain); experiment: as above; conditions: both partners purified
T2 construct: also called CM244 (AE); CM224

[3] = biological target: T3, AD8 gp120 (HIV-1 subtype B, AD8, UniProt O40222, strain); experiment: as above; conditions: both partners purified
T3 construct: also called AD8 (B)

[4] = biological target: T4, SF162 gp120 (HIV-1 (SF162), UniProt P19550); experiment: as above; conditions: both partners purified
T4 construct: also called SF162 (B)

[5] = biological target: gp120 A2 (clade A, 92UG037.8) (HIV-1 isolate 92UG037.8 (clade A), UniProt Q70200, strain); experiment: ELISA; HmAb64 on gp120, gp120-Core or their D368R mutant protein, as previously described; conditions: both partners purified
[6] = biological target: gp120 Czm (clade C, 96ZM652) (HIV-1 subtype C, named 96ZM652; entry …, strain); experiment: as above; conditions: both partners purified
[7] = biological target: T5, wild-type gp120 Env protein, HIV-1 isolate JR-FL (HIV-1 isolate JR-FL, UniProt Q75760, strain); experiment: as above; conditions: both partners purified
T5 construct: also called JR-FL gp120

[8] = biological target: T6, wild-type gp120 Env protein, HIV-1 isolate YU2 (HIV-1 isolate YU2, UniProt P35961); experiment: as above; conditions: both partners purified
T6 construct: also called YU2 gp120

[9] = biological target: biotinylated gp120 of HIV-1 SF162 (HIV-1 isolate SF162, UniProt P19550, strain); experiment: flow cytometry on cells; HmAb64 added to biotinylated gp120 and read by the loss of gp120 staining of primary CD4+ T cells; conditions: both partners purified
[10] = biological target: T7, biotinylated gp120 of HIV-1 CM244 (HIV-1 isolate CM244 (CRF01_AE; printed …, UniProt Q4QX31, strain); experiment: as above; conditions: both partners purified
T7 construct: also called CM224 (as printed in the methods)

[11] = biological target: T8, HIV-1 SF162 Env on infected human CD4+ T cells (HIV-1 isolate SF162, UniProt P19550, strain); experiment: flow cytometry on cells; primary human CD4+ T cells infected with HIV SF162 for 3 days, stained with HmAb64 (2 ug), goat anti-human-PE; conditions: one partner purified
T8 construct: also called HIV-1 SF162 infected CD4+ T cells; source: primary human CD4+ T cells infected with HIV SF162, on the cell surface

[12] = biological target: A244 gp120 (HIV-1 isolate A244); experiment: SPR; Biacore 3000, CM4 or CM5 chip; gp120 or BG505-SOSIP immobilised by amine coupling to about 750 RU; HBS pH 7.4, 3 mM EDTA, 0.005% Tween-20, 0.05% carboxymethyl-dextran; 25 ul/min, 25 C; conditions: both partners purified

Measured: binding result

B1: HmAb64 (antibody, V domains shown)
VH: QVQLVQSGAEVKKPGASVKVSCKASGYTFTSYDITWVRQAPGQGLEWMGWISAYNGDTNYAQRLQGRVTMTTDTSTSTAYMELRSLRSDDTAVYYCARAKHTVLVTAMRWFDPWGQGTLVTVSS
VL: DIQMTQSPSSLSASVGDRVTITCRASQSISNYLNWYQQKPGKAPKLLISATSSLQSGVPSRFSGSGSGTDFTLTISSLQPDDFATYYCQQSYSTPWTFGQGTKLEIK
notes: also called HmAb64 mAb; source: Freestyle 293F cells, transfected, purified (Protein A HP columns)
binds: [1] | [2] | [3] | [4]

B2: HmAb64 (antibody, V domains shown)
VH: QVQLVQSGAEVKKPGASVKVSCKASGYTFTSYDITWVRQAPGQGLEWMGWISAYNGDTNYAQRLQGRVTMTTDTSTSTAYMELRSLRSDDTAVYYCARAKHTVLVTAMRWFDPWGQGTLVTVSS
VL: DIQMTQSPSSLSASVGDRVTITCRASQSISNYLNWYQQKPGKAPKLLISATSSLQSGVPSRFSGSGSGTDFTLTISSLQPDDFATYYCQQSYSTPWTFGQGTKLEIK
notes: also called human IgG (HmAb64); clone #64; source: Freestyle 293F cells, transfected (mAb64-HC/pJW4303 and mAb64-KC/pJW4303), purified from supernatant (Protein A)
not listed: [1] | [2] | [3] | [4]
binds: all other assays above
